Experimental findings from the supplement of paper PMC10201428 are described below.

± gives the standard deviation of the averaged measurements. A value given as a limit tells only on which side of the number the result lay.

Data set [1] has as its system VchCAST RNA-guided transposition machinery (E. coli BL21(DE3) host, lacZ target). Description: relative integration efficiency (T-LR orientation) vs wild-type transposon end (log2 (normalized fold change)); transposon end mutated: left end; higher = more efficient transposition. In a few lines:
(§1)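 Barcode abundances in input plasmids and in genomic integration junctions were obtained by PCR amplification and Illumina sequencing. These came from E. coli BL21(DE3) co-transformed with a T7-driven effector plasmid and a pUC57 donor carrying 1549 left-end or 1849 right-end transposon variants, then plated with 0.1 mM IPTG at 37°C for 18 h. Relative integration efficiency is the output/input fold change, normalised to reference barcodes and log-transformed.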

The test system is the same in data set [2]. Kind of data set: relative integration efficiency (T-RL orientation) vs wild-type transposon end (log2 (normalized fold change)); transposon end mutated: left end; higher = more efficient transposition. In a few lines:
as §1

Turning to “AATGTTGTTGATGCAACCATAAAGTGATATTTAATAACTTCGTATAGTATACATTATACGAAGTTATCAACCATATATTGATATCTCACAAAACAACCATAAGTTGATATTTTTGTGAATCGAGTATTTCAGCAAAACTACTGCAGTAAGAA”, the “relative integration efficiency (log2)” value in data set [1] is -4.118 ± 0.013; in data set [2], -2.92 ± 1.

With “AATGTTGTTGATGCAACCATAAAGTGATATTTAATAACTTGGTATAGCATACATTATACGAACGGTACAACCATATATTGATATCTCACAAAACAACCATAAGTTGATATTTTTGTGAATCGAGTATTTCAGCAAAACTACTGCAGTAAGAA”, the “relative integration efficiency (log2)” value in data set [1] is -4.2 ± 0.86; in data set [2] it was -3.71 ± 1.4.

“AATGTTGTTGATGCAACCATAAAGTGATATTTAATAAGGCGGGCGCCGACTACCAGGCCAACACCCCACCAACGCGCGGTCGCGAGACACCCCACCAACGCCTGGTCGCGGGGGTGTCCGATCTGATTTCAGCAAAACTACTGCAGTAAGAA”: the entries for the “relative integration efficiency (log2)” value in data set [1] and in data set [2] were -3.73 ± 1.5 and -7.05 ± 1.6, respectively.

“AATGTTGTTGATGCAACCATAAAGTGATATTTAATAATCAACCATAAAGTGATATTTAACTTAACCACAACCATATATTGATATCTCACAAAACAACCATAAGTTGATATTTTTGTGAATCGAGTATTTCAGCAAAACTACTGCAGTAAGAA”: the “relative integration efficiency (log2)” value in data set [1] was -4.25 ± 0.83; in data set [2], -2.68 ± 0.72.

As for “AATGTTGTTGATGCAACCATAAAGTGATATTTAATAATCAACCATATATTGATATCTCACAAAACAACCATAAGTTGATATTTTTGTGAATCGAGTATTTCAGCAAAACTACTGCAGTAAGAAAGTTACTTCGTGGTATGGGAGGATCAAGG”, the “relative integration efficiency (log2)” value in data set [1] is less than -10; in data set [2], -7.79 ± 2.1.

On to “AATGTTGTTGATGCAACCATAAAGTGATATTTAATAATCAACCATATATTGATATCTCTATTTATAATCAGCAACTTAACCACAAAAACAAAACAACCATAAGTTGATATTTTTGTGAATCGAGTATTTCAGCAAAACTACTGCAGTAAGAA”, for which the figures for the “relative integration efficiency (log2)” value in data set [1] and in data set [2] were -0.761 ± 1 and -2.9 ± 1.1, respectively.

In the case of “AATGTTGTTGATGCAACCATAAAGTGATATTTAATAATCAACTGTATATAAATACAGTTCCACAAAACAACCATATATTGATATCTCACAAAACAACCATAAGTTGATATTTTTGTGAATCGAGTATTTCAGCAAAACTACTGCAGTAAGAA”, the “relative integration efficiency (log2)” value in data set [1] is -5.77 ± 0.6; in data set [2], -4.85 ± 1.1.

Take “AATGTTGTTGATGCAACCATAAAGTGATATTTAATAATGCGGGCGCCGACTACCAGGCCAACACCCCACCAACGCGCGGTCGCGAGACACCCCACCAACGCCTGGTCGCGGGGGTGTCCGATCTGATTTCAGCAAAACTACTGCAGTAAGAA”: the “relative integration efficiency (log2)” value in data set [1] is -5.9 ± 3.3; in data set [2] it was -7.04 ± 1.2.

In the case of “AATGTTGTTGATGCAACCATAAAGTGATATTTAATAATGGAATTGTGAGCGGATAACAATTACAAAACAACCATATATTGATATCTCACAAAACAACCATAAGTTGATATTTTTGTGAATCGAGTATTTCAGCAAAACTACTGCAGTAAGAA”, the “relative integration efficiency (log2)” value in data set [1] is -3.41 ± 0.6; in data set [2] it was -4.89 ± 0.52.

As to “AATGTTGTTGATGCAACCATAAAGTGATATTTAATAATTACAACCATATATTGATATCTCTTTATAATCAGCAACTTAACCACAAAAACAAAACAACCATAAGTTGATATTTTTGTGAATCGAGTATTTCAGCAAAACTACTGCAGTAAGAA”, the “relative integration efficiency (log2)” value in data set [1] is -2.04 ± 1.6; in data set [2], -4.31 ± 0.99.

“AATGTTGTTGATGCAACCATAAAGTGATATTTAATAATTAGGGCGCCGACTACCAGGCCAACACCCCACCAACGCGCGGTCGCGAGACACCCCACCAACGCCTGGTCGCGGGGGTGTCCGATCTGATTTCAGCAAAACTACTGCAGTAAGAA”: the “relative integration efficiency (log2)” value in data set [1] is -4.57 ± 0.92; in data set [2], -7.07 ± 0.66.

As to “AATGTTGTTGATGCAACCATAAAGTGATATTTAATAATTATCAACCATAAAGTGATATTTAACTTAACAACCATATATTGATATCTCACAAAACAACCATAAGTTGATATTTTTGTGAATCGAGTATTTCAGCAAAACTACTGCAGTAAGAA”, the “relative integration efficiency (log2)” value in data set [1] is -4.24 ± 1.2; in data set [2], -3.5 ± 0.95.

Turning to “AATGTTGTTGATGCAACCATAAAGTGATATTTAATAATTATCAACCATATATTGATATCTCTTATAATCAGCAACTTAACCACAAAAACAAAACAACCATAAGTTGATATTTTTGTGAATCGAGTATTTCAGCAAAACTACTGCAGTAAGAA”, the “relative integration efficiency (log2)” value is -2.13 ± 1.5 in data set [1] and -4.57 ± 1.7 in data set [2].

Turning to “AATGTTGTTGATGCAACCATAAAGTGATATTTAATAATTATTCAACCATATATTGATATCTCACAAAACAACCATAAGTTGATATTTTTATAATCAGCAACTTAACCACAAAATGTGAATCGAGTATTTCAGCAAAACTACTGCAGTAAGAA”, the figures for the “relative integration efficiency (log2)” value in data set [1] and in data set [2] were less than -10 and -6.852 ± 0.014, respectively.

With “AATGTTGTTGATGCAACCATAAAGTGATATTTAATAATTATTCAACCATATATTGATATCTCTATAATCAGCAACTTAACCACAAAAACAAAACAACCATAAGTTGATATTTTTGTGAATCGAGTATTTCAGCAAAACTACTGCAGTAAGAA”, the “relative integration efficiency (log2)” value in data set [1] was -3.42 ± 0.56; in data set [2], -5.19 ± 1.2.

For “AATGTTGTTGATGCAACCATAAAGTGATATTTAATAATTATTGCGCCGACTACCAGGCCAACACCCCACCAACGCGCGGTCGCGAGACACCCCACCAACGCCTGGTCGCGGGGGTGTCCGATCTGATTTCAGCAAAACTACTGCAGTAAGAA”, the “relative integration efficiency (log2)” value in data set [1] is -5.68 ± 3.3; in data set [2], -6.73 ± 0.58.

As to “AATGTTGTTGATGCAACCATAAAGTGATATTTAATAATTATTTACAACCATATATTGATATCTCACAAAACAACCATAAGTTGATATTTTTGTGAATCGAGTATTTCAGCAAAACTACTGCAGTAAGAAAGTTACTTCGTGGTATGGGAGGA”, the “relative integration efficiency (log2)” value in data set [1] was -1.76 ± 1; in data set [2], -5.81 ± 1.1.

On to “AATGTTGTTGATGCAACCATAAAGTGATATTTAATAATTATTTACAACCATATATTGATATCTCTAATCAGCAACTTAACCACAAAAACAAAACAACCATAAGTTGATATTTTTGTGAATCGAGTATTTCAGCAAAACTACTGCAGTAAGAA”, for which the “relative integration efficiency (log2)” value in data set [1] is -2.24 ± 2.1; in data set [2], -4.75 ± 1.3.

With “AATGTTGTTGATGCAACCATAAAGTGATATTTAATAATTATTTATAACAACCATATATTGATATCTCTCAGCAACTTAACCACAAAAACAAAACAACCATAAGTTGATATTTTTGTGAATCGAGTATTTCAGCAAAACTACTGCAGTAAGAA”, the figures for the “relative integration efficiency (log2)” value in data set [1] and in data set [2] were -2.66 ± 1.4 and -4.46 ± 0.052, respectively.

Consider “AATGTTGTTGATGCAACCATAAAGTGATATTTAATAATTATTTATAAGACTACCAGGCCAACACCCCACCAACGCGCGGTCGCGAGACACCCCACCAACGCCTGGTCGCGGGGGTGTCCGATCTGATTTCAGCAAAACTACTGCAGTAAGAA”, for which the “relative integration efficiency (log2)” value in data set [1] is -6.04 ± 3.5; in data set [2], -6.62 ± 1.2.

For the sequence “AATGTTGTTGATGCAACCATAAAGTGATATTTAATAATTATTTATAATACTACCAGGCCAACACCCCACCAACGCGCGGTCGCGAGACACCCCACCAACGCCTGGTCGCGGGGGTGTCCGATCTGATTTCAGCAAAACTACTGCAGTAAGAA”, the “relative integration efficiency (log2)” value in data set [1] is -3.51 ± 1.3; in data set [2] it was -6.5 ± 1.2.

For “AATGTTGTTGATGCAACCATAAAGTGATATTTAATAATTATTTATAATCAACCATATATTGATATCTCACAAAACAACCATAAGTTGATATTTTTGTGAATCGAGTATTTCAGCAAAACTACTGCAGTAAGAAAGTTACTTCGTGGTATGGG”, the “relative integration efficiency (log2)” value in data set [1] was -4.56 ± 2.6; in data set [2] it was -6.16 ± 1.6.
